The record followed here is patent publication US20210063414A1, “METHODS FOR PREVENTING AND/OR TREATING BONE LOSS CONDITIONS BY MODULATING IRISIN” (Dana-Farber Cancer Institute, Inc., priority 2018, published 2021).

Test in all cases: Crosslinking/co-immunoprecipitation/mass spectrometry (TMT quantitative proteomics) to identify irisin receptors
What all share (format): binding

In assay [1] the target is T1, MLO-Y4 cell surface proteins (Mus musculus, UniProt Q6ZQ93).
T1 construct: endogenous in cells; host or cells: MLO-Y4
T1 sequence (Q6ZQ93 whole entry): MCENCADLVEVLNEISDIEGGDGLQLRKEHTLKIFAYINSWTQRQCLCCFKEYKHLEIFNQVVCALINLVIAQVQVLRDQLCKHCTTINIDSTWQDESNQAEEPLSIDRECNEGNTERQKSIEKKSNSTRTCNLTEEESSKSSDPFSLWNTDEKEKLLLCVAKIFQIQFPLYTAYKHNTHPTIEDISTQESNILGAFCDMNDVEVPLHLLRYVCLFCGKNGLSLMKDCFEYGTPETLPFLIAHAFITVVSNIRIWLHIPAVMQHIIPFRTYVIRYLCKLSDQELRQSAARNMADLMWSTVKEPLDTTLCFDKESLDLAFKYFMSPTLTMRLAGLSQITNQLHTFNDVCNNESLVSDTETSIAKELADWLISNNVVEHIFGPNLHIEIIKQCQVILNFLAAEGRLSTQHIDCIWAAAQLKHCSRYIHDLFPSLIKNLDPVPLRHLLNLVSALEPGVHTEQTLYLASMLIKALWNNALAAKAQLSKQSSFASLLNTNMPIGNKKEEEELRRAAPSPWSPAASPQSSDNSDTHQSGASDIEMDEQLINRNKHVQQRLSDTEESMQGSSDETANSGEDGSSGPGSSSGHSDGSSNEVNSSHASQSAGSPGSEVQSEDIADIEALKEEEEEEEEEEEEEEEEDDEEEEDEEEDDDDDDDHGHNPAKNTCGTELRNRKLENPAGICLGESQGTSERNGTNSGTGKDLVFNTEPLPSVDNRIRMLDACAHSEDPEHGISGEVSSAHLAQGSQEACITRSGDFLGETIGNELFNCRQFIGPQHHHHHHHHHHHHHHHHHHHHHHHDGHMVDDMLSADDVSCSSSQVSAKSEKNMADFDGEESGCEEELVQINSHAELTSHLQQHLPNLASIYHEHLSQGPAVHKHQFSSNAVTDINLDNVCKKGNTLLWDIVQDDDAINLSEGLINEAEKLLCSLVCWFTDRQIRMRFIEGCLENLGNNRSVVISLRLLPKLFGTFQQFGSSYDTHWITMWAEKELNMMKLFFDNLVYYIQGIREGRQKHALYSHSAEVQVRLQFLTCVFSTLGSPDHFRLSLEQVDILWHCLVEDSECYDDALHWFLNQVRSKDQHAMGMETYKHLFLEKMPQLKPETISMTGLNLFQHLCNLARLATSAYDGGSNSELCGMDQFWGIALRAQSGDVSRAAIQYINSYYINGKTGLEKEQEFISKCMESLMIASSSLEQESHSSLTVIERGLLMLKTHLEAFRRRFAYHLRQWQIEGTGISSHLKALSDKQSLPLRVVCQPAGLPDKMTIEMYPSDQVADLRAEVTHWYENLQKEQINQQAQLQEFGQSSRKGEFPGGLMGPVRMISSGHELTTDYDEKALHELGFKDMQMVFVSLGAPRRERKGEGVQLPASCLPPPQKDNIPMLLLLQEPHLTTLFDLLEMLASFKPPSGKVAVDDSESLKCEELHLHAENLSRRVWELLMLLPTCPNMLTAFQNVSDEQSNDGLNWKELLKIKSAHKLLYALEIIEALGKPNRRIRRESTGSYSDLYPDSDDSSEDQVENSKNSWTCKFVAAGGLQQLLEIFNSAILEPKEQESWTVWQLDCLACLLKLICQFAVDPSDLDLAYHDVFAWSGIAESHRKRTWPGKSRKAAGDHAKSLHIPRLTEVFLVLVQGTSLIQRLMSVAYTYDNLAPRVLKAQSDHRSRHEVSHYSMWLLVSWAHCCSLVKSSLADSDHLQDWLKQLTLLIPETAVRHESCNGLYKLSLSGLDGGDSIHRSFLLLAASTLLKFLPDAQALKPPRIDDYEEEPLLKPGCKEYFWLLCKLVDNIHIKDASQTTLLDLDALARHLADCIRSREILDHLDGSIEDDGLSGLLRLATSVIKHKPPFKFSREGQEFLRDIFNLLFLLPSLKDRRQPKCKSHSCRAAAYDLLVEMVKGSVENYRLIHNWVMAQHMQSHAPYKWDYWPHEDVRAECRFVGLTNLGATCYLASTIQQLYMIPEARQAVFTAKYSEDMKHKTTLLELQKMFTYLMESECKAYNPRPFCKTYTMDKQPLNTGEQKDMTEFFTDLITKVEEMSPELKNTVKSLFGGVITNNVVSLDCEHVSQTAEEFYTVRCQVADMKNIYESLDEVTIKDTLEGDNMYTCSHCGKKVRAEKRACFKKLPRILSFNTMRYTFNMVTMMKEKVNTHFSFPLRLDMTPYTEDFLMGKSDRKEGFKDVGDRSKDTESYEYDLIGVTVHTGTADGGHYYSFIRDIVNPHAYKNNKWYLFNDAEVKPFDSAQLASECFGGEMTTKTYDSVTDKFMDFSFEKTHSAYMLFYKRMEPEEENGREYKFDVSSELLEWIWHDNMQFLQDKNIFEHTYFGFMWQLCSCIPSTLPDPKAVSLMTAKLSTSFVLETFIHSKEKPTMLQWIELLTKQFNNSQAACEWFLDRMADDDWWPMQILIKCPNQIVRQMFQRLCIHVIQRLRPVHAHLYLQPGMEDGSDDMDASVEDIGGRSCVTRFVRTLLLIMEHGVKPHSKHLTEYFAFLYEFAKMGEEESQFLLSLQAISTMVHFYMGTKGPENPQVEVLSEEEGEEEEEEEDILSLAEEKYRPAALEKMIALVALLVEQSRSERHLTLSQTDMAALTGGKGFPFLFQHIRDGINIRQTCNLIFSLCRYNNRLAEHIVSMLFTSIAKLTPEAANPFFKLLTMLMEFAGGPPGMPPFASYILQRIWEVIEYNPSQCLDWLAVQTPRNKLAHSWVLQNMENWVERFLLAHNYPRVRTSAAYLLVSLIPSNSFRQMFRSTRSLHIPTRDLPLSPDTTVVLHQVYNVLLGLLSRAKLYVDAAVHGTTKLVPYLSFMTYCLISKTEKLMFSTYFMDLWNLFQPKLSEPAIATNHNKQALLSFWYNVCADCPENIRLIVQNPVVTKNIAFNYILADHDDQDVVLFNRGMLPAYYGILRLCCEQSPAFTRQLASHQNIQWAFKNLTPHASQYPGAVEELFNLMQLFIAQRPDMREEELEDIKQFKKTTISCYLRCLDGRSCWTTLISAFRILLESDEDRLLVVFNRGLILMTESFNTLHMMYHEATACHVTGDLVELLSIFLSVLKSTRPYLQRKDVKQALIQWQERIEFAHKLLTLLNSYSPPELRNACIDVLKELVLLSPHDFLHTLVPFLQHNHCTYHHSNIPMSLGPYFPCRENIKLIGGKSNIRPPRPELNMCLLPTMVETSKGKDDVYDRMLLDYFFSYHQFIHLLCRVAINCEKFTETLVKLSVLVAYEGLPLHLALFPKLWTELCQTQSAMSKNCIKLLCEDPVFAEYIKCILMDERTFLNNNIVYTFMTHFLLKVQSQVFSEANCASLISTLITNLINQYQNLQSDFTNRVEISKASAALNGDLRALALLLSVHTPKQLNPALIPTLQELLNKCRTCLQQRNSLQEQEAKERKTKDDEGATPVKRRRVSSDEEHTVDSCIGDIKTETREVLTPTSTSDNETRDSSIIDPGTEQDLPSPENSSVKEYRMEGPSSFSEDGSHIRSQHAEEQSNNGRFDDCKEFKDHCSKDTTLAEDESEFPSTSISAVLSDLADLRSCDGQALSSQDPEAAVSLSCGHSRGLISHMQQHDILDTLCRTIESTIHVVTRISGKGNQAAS
The settings on record: co-precipitated protein Usp34 (UBP34_MOUSE). In a few lines:
(§1)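 Relative protein abundance came from 6-plex TMT MS3 quantitation on an Orbitrap Fusion Lumos, after in-gel trypsin digestion of Coomassie-stained SDS-PAGE lanes. Input was a Ni-NTA pulldown (250 mM imidazole elution) of lysates from murine MLO-Y4 cells. These cells were treated on ice with His-tagged irisin or adipsin (10 nM, 20 min) in serum-free medium, then crosslinked with 1.5 mM DTSSP for 30 min.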

In assay [2] the target is T2, MLO-Y4 cell surface proteins (Mus musculus, UniProt Q8K221).
T2 construct: endogenous in cells; host or cells: MLO-Y4
T2 sequence (Q8K221 1-341): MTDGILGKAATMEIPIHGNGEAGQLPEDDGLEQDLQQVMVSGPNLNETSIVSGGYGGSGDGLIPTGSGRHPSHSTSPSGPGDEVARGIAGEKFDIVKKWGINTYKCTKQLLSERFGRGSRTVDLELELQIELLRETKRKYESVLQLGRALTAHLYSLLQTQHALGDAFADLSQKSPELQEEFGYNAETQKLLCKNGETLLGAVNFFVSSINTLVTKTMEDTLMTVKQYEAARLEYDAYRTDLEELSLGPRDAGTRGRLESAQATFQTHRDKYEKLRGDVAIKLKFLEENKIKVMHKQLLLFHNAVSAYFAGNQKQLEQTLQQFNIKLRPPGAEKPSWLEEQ
To be noted: co-precipitated protein Arfip2 (ARFP2_MOUSE). In a few lines: as §1

For assay [3], the target named is T3, MLO-Y4 cell surface proteins (Mus musculus, UniProt Q9CXD6).
T3 construct: endogenous in cells; host or cells: MLO-Y4
T3 sequence (Q9CXD6 1-340): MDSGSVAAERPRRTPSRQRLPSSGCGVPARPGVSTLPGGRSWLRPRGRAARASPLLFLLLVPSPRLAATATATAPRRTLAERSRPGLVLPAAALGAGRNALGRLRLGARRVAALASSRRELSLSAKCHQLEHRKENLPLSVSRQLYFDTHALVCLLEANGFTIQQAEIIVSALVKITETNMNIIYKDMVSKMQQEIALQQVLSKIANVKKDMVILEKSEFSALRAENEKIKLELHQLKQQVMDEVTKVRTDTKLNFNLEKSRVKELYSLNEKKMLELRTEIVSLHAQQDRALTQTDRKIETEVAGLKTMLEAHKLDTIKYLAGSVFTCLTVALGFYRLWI
The settings on record: co-precipitated protein Mcur1 (MCUR1_MOUSE). In a few lines: as §1

Assay [4] concerns the target T4, MLO-Y4 cell surface proteins (Mus musculus, UniProt Q8BFT2).
T4 construct: endogenous in cells; host or cells: MLO-Y4
T4 sequence (Q8BFT2 1-363): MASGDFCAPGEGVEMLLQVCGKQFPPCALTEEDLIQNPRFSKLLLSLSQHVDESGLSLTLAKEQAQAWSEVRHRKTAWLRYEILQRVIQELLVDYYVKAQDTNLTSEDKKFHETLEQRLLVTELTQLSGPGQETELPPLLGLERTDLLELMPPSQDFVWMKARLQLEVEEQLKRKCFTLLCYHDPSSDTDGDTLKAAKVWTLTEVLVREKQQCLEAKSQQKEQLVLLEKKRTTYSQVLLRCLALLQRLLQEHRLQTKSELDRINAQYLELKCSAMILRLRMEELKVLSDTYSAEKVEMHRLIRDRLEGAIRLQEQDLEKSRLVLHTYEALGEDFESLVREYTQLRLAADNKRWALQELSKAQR
The settings on record: co-precipitated protein Haus4 (HAUS4_MOUSE). In a few lines: as §1

Take adipsin: the TMT signal-to-noise ratio was 1044.49 in assay [1], 1092.57 in assay [2], 1631.69 in assay [3] and 518.102 in assay [4].
